Results: the DeepSol protein solubility set

Test: soluble on expression in E. coli; label from the status in PepcDB or PDB records

Sequence	soluble on expression in E. coli
MKAICVLSGGLDSAVTSMFAKSKNYDISTVTFNYGQMALNQEIKSAKKISDILNADHHVIDINFVKEFSKSGLNTGNIPEPENEDLDDFEKSEKTMKAVWVPARNMIMFSIASGFAEGIGAEKIFSGLNKEEGVTFPDNTPEFIERFNKSLEYGTLNKVKMVAPLYELNKPEIAKLGKELELKLDLEVLKYSYSCYKDNGKDYLHCGTCESCMRRKRAFKEAGITDPTKYLVE	not soluble
MGSDKIHHHHHHMWPNPALDTITHQWAQVFTNGGGLASLTDMIEQDVVVVGGGMVGAALAAGLGRAGLSVTVLENHMPQAFEASQPLDVRVSALSVASEALLERLDAWAGILSRRAVPYLGLETWEIESCITRFHASQIGADHLGHIVENRVVQLALWDLLSTLDSVTVKAPVNVMGFERLVDEDAICVALDSGERIKAKLLVGADGANSQVRAFAHIGVTGWDYAQSAMLINIATACEQQDVTWQQFTPQGPRSLLPLPGKNASLVWYDDASTIARLAKLNPNELADSIRAHFPARLDRDFRVLDKGHFKLTRRHAQRYFDANLVLIGDAAHTINPLAGQGVNLGFKDVDVLLDEIVSAVKKGENWHTKSVLERYQQRRWRDNQLMMSTMDAFYASFSNDLLPVKLLRNAALRLANVDGPIKRQVLKYAMGLK	not soluble
